In the NTF2 design screens of Basanta et al. (2020) one finds protease stability score data, which are given here for 34 sequences.

A short description of this data set: protease stability score; higher = more stable; yeast display proteolysis, trypsin and chymotrypsin.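 Note: log10 excess protease needed over predicted unfolded state with 0 meaning unfolded.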
On to “DDDAARQFEEVMKAVEHGDPHQVEELVDPNATFNVGDKRWHGMRENMQEHISRFQSINMTVEIKRVEDTNGRAKFEASVTRNDNGKPDTFTVEIVVRVHNGEIKEVQLNNTK”, for which the protease stability score is 0.158.
The figure for “DDDADRRARKLDQARKEGDPDKMRKNMDPNVRMQIGDQEWSGRETIANKLATDLKRMDIEITIKRYTWHNGTADIDADETFNVDGRPNSDKVRMEVHFHNGRVEHQILRVPEEFKHRLHK” is -0.115; for “DDDAIKRFHEQVDNEQHNNEEEQEKNVDPNATVNVGDKTYHGREKWREVVKRENEEMRVKYQHVTFRRHPGRVIVRFRIVNDHNGKPTETDVNANYQMHNGRIRQVNRRTDG” it is 0.162.
The figure for “DDDALRRAKEMDDQIKNGNEHEYQKMVDPNAREHIGDTTYSGRENLVKLVRDRRRHMREKVDITEMESSGDKLRIVYRAEQEHNGQPRKKRRRKVIRLSNGRVQEVKVVDDQ” is 0.4; for “DDDALRRLEELWSALEEGDESRVNRNIDPNARLKIGDTTIHGREKLAESLVRDWKEIKLEIEFKTLEAHNGQARLEAIEHFRINGRPEQINFRMQMHQRNGNVDEIVIEMDPDQQRKKES” it is -0.133; for “DDDAMRKAHEFYTAYNTNDEDTLSKQFDPNARIRYGDEVIHGREQLKKWMEEIQREMSVSVRVKSMKVRGDEIHIKFDMTVDINGNPLEFDAQAEFRFRNGKFIDFTLQIPEEAQKQEHG” it is 0.704.
The same measure for “DDDAQNTLSDRINLIKQGNKEEVDKQADPNATVQVGDKKVQGREEIRRWIKHVKDQLNVQIEIKHVEAQGNKVRIDASFRARINGKPVRIRFILIADMHNGRFKRVVMHLDEDQQRKYEK”: 0.943; for “DDDAQRIAEDIQNALRKGDPERLNHLVDKNVKFVIGDKTIHGREDAAKQWHTMNRQMRIEVEMKHWDQQGNEVTIVARFVYEHNGRPETKRITRTITFHNGRAKEVVQKDDS”: 0.09; for “DDDAQRRLEDQLKQIEEGNPEQIRNQVDPNATLRYGDKTIQGREEIVKWWKRIRDESRIQFHLKSMEVSGDQVRVVFNLVVKHNGKPSHSQVVVTLRFHNGKVTEVSMQHTS”: 1.71.
In the case of “DDDAQRRVKTYFNLLLTGNPENLKNQVDEDVRVEIGDKEIRGSDQVAHHARQLHTEMRIHARIDDMKVQGDHIRVEVRLYFERNGQPRTKNLRASVRWHNGKMKEFVVKNDD”, the protease stability score came out at 0.682.
The same measure for “DDDAQRVLNEFWRHWRRGNEEELKKLVDPNAQFEVGNKTFHGREHYANYLRRVSEEMTFDINIKDMSVEGDQVVIDATIMVQVNGNPISIKVIWRANATNGKIKYLSLQIDEDMVRQQQS”: 0.445; for “DDDARDLMKEVLTAQKNNDPKHVRKLFDPNANIKYGDREVTGMDHAAKTLVDHIQQIRLQIDSVTLEVQGDTIIVHAQMVNDRNGNPDSTRFVLEAKVDGDKFKSQDKQEDS”: -0.524; for “DDDARERVDELLEVEQTGNREDIKRLVDPNAKVQVGDDEYHGMEVYAETVVKKRKEINIELRFKDMQVHNGRANADVEAVYDHNGRPSRMRFVLHFVIRNGKFKEIRLREDR”: 1.2.
Sequence “DDDARRVINDALEAMNSNNESQLAHLFDPNATFEVGDREIHGRDDFREWVRQMQEEMRFSVSVRDVQERPNHVKFDVEYEEEKNGNPDKHRAVLKARARNGKITELKLDNHK” showed a protease stability score of 0.075.
The figure for “DDDASRRFHEFVKLVRTNNPHKAMEMVDPNARFHIGDKEIHGREDVRRWVSRMLREARVTIDLKSLDVQGEKVKVTNLVRRRHNGEPQQMSVHAQVVWHNGKIKQETAHFKG” is 0.127.
The figure for “DDDATKVVKEFLSALKTNNPDRARELIDKDVRVRVGDKEIHGREQLITHIETDLKKIRIEIKHMHIDVTGEDIIIHQVFVDEHNGRPHTQTVVVFIEMNNGRVKNVRSETSS” is 0.322.
“DDDAVRKARELQKAYDHGDEQKVRDLADPNARVRVGDKKLHGMEDIAHTLAERDKQIDNTVRVDRITAHNGRVDANLRMRNNNNGRPNNFELDLKVVVDNGNIVDVDRQNNR”: the protease stability score was -0.207.
The figure for “DDDAVRKLRELIKAVKDGDPSRAKELMDPNAEIVVGDHYIRGMDNFDKEIDRQKKEARVEYRLKRVRHDENHIKVDAEVIFNVNGRPVTFKLKMRVKLHNGKMIEVEQQVDESSIERVKS” is 1.01; for “DDDAVRLFKEELKAEKNNNPDKIRELADPNARFKVGDKTVHGRESWARTVETRAREIRNDIDVKSYDNDNGRADIKMTVHQEENGRPQHNEASANITADNGRLKEVQIHSRP” it is -0.356.
Consider “DDDAVRQAQENLKAIEDGDEDKVRNLMDPNAQVNIGDKTIHGMEEFMRQMKRKLDEIRVDYEDIKIDKQGDKARLDATWRQDDNGEPHSMKVDVDVKFRNGKIVDWQQQYDG”, for which the protease stability score was -0.149.
The same measure for “DDDAVRQVHTFWRILERGNSDRATEMLDENARVEVGDRSLHGREKIVTQQYRLYTQARIEVERYSAQDHGNKVHAFVLVVVHVNGTPHRFTVDVNFVFQNGRFKSIHLQVSEEQLRQEER”: 0.604; for “DDDAVRRMKEFEEAKQHGDPDELRRLADPNVRLEYGDKEIHGRDTMAQTLKNEVDEIRMEVDFRHFTSQGDKVSIQAEQSRDNNGQPQSVKAQFDARFHNGRLKHLRVQLDG”: 0.114.
Regarding “DDDDLKRITEFLKNEQKGNSEELRKLADPNATFQIGDKTIKGRDKFANEAKKRRDEMHFQYKSVHMRDHNGVAVFSVTWILDHNGKPEENTFTLQAKLTNGKIKMLRLQSRK”, the protease stability score is -0.012.
The sequence “DDDDMKLAEEFAQAISTGDHNRVEENADKDARFDIGDKVVNGNHQRATEVKKEQDDQKVSVDINSMDATGNKVVAEINVDINNNGHPETQEHILHFTQDNGKIRHMEVKDDQ” registered a protease stability score of -0.685.
The sequence “DDDDNKTAQDRMRTNDFTTLARHAPEDAHAQIGDTTVTGRRKLEEIVVKFREQVDHMEIKDIRTSGEKVFIDLHATFDGHTVRLVIEVEVKNGRLQKLFFRVTDPERAKEIVEQLD” had a protease stability score of 0.362.
The figure for “DDDDQLRSMIKSYNDNFQRGDFVRLLKMAPPDVKIRIGEDEISGREKANEFATRLEEEVDQVEAEIKSVTAHNGKASADILVEVNHNGETKHFTIEVHFDLQNGEVHLTEVVYK” is 0.79.
The figure for “DDDEARHRAEEIVRQMQSNNWKDIDKLMDKNVQIRVGDKRYTGRTRARKFIKTIADRVDHAHVVNVTVQGNKARFEFIARFDGEHVRMQMVFELHNGHAKKVEVDPEELKQLKK” is 1.04.
With “DDDEARKALQWFSTGDPDKLKKNVDENAKVQIGDKEYQGRDQAATALVKLQKRVDHVEIKHVSIDGDDVVVDLVLNVDGHEVRFTNEFRVENGKFQDVHINVTNEEDEKILKRVLG”, the protease stability score was 0.932.
The figure for “DDDEIEKIARQLVKALQKGDFKHFVELMDKDVRLEYGDKEVHGREQAKQAMKELAERVDHVQLDDYKVHNGTAEIRLKLNFNGKSADVVFDMRIEDGRVKKIVIRYRSEEHRKHIDT” is 1.24; for “DDDEIRRLAKRVVKALHDGDPDEMMRLADENAKIDVGDHRIRGREQLRDFVKQLTEDVDHIRIHDYRVTPNHARVVVVVDHNGQKSTFVVEAHMDNGTIKSMRFHER” it is 0.462; for “DDDEMHKLVEHAIKAWETGDHKKAMDLIDPNAKVDVGDREIHGREEFSHHVREINKKVDRVDVQDYKVRGNKAQVRMQFNVNGQTVVVNLVFVMSNGRLSRVQIDVTDPDKFRSAQS” it is 0.138.
The same measure for “DDDEMRELIKSIEEVLTDGDPDEFLKQIDPNAKAQYGDTRVSGSEEIRKMAEKFSDRVDHVDVRDIKVSGDTATFDMQIDHNGRNDTVIMIVEAHNGKVKHVQYHKG”: 0.142; for “DDDEMRKLLTRLADNYKHNDPNKLAEQMDPDVEIEIGDKTYHGRENVMKHWKEQHERVDHVNIQHLDAQGENLVMTFNVTVNGKHVTVRIIFNVKNGRIKSVIVDPDDIKKLEG”: 1.48; for “DDDENKNVLKRVVDILRTGDDKKMQKLADPNARLIVGDKTYHGREDMMHWVKELKQDVDHMKVEQIEVRGERARAILVAEVNGQQRRYLLIITVHNGRLKQMEVRSQ”: 1.91.
